Values of other authors, collected in patent publication US20250282866A1, “TREATMENT OF DISEASES RELATED TO ATP-BINDING CASSETTE TRANSPORTER 1 DYSFUNCTION USING TREM2 AGONISTS” (VIGIL NEUROSCIENCE, INC., priority 2020, published 2025).
Changes are numbered by the printed parent chain. Names may count otherwise. Marks after values point to notes of the source that are not given here.

T1: human TREM2 (Homo sapiens, UniProt Q9NZC2)
T1 sequence (Q9NZC2 19-230): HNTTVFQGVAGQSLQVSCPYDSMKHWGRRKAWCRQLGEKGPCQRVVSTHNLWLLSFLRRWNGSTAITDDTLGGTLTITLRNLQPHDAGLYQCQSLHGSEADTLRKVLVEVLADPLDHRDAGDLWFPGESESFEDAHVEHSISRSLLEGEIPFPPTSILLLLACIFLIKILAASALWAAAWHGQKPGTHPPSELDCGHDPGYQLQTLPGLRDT

B1: V90: 6E7 variant: VH Y32E; VL S31R (antibody, V domains shown)
VH: EVQLVQSGAEVKKPGESLKISCKGSGYSFTSEWIAWVRQMPGKGLEWMGIIYPGDSDTRYSPSFQGQVTISADKSISTAYLQWSSLKASDTAMYFCARQRTFYYDSSDYFDYWGQGTLVTVSS
VL: DIQMTQSPSSVSASVGDRVTITCRASQGISRWLAWYQQKPGKAPKLLIYAASSLQNGVPSRFSGSGSGTDFTLTISSLQPEDFATYFCQQADSFPRTFGQGTKLEIK
B2: V85: 6E7 variant: VH T30R, I50T, Q99S; VL L54R (antibody, V domains shown)
VH: B1 VH with T30R, E32Y, I50T, Q99S
VL: B1 VL with R31S, L54R
B3: V14: 6E7 variant: VH T30G, S56Q, Q99G; VL S53R (antibody, V domains shown)
VH: B1 VH with T30G, E32Y, S56Q, Q99G
VL: B1 VL with R31S, S53R
B4: V87: 6E7 variant: VH T30R, T58V, S63D, Q99S; VL N56W (antibody, V domains shown)
VH: B1 VH with T30R, E32Y, T58V, S63D, Q99S
VL: B1 VL with R31S, N56W
B5: V25: 6E7 variant: VH T30G, I50L, Q99S; VL Q55A, F94M (antibody, V domains shown)
VH: B1 VH with T30G, E32Y, I50L, Q99S
VL: B1 VL with R31S, Q55A, F94M
B6: V16: 6E7 variant: VH F29M, S56G, Q99S; VL S53N (antibody, V domains shown)
VH: B1 VH with F29M, E32Y, S56G, Q99S
VL: B1 VL with R31S, S53N
B7: V13: 6E7 variant: VH T30G, P62A, Q99G; VL N56G, F94M (antibody, V domains shown)
VH: B1 VH with T30G, E32Y, P62A, Q99G
VL: B1 VL with R31S, N56G, F94M
B8: V38: 6E7 variant: VH T30G, T58V; VL L54R, F94H (antibody, V domains shown)
VH: B1 VH with T30G, E32Y, T58V
VL: B1 VL with R31S, L54R, F94H
B9: V86: 6E7 variant: VH T30G, I34L, Q65E, Q99S; VL L54R (antibody, V domains shown)
VH: B1 VH with T30G, E32Y, I34L, Q65E, Q99S
VL: B1 VL with R31S, L54R
B10: V27: 6E7 variant: VH S61A, Q99S; VL N56R (antibody, V domains shown)
VH: B1 VH with E32Y, S61A, A97V, Q99S
VL: B1 VL with R31S, N56R
B11: V37: 6E7 variant: VH F29H, Q65A, Q99S; VL N56W, F94Y (antibody, V domains shown)
VH: B1 VH with F29H, E32Y, Q65A, Q99S
VL: B1 VL with R31S, N56W, F94Y
B12: V88: 6E7 variant: VH T30G; VL S53R, N56R, F94S (antibody, V domains shown)
VH: B1 VH with T30G, E32Y
VL: B1 VL with R31S, S53R, N56R, F94S
B13: V36: 6E7 variant: VH I34L, Q99S; VL L54R, F94Y (antibody, V domains shown)
VH: B1 VH with E32Y, I34L, Q99S
VL: B1 VL with R31S, L54R, F94Y
B14: V15: 6E7 variant: VH T30A, I50T, Q99S; VL S53W, F94Y (antibody, V domains shown)
VH: B1 VH with T30A, E32Y, I50T, Q99S
VL: B1 VL with R31S, S53W, F94Y
B15: V28: 6E7 variant: VH T30Q, I50T, Y103F; VL N56S, F94L (antibody, V domains shown)
VH: B1 VH with T30Q, E32Y, I50T, Y103F
VL: B1 VL with R31S, N56S, F94L
B16: V24: 6E7 variant: VH T58V, Q99S; VL N56K, R96H (antibody, V domains shown)
VH: B1 VH with E32Y, T58V, Q99S
VL: B1 VL with R31S, N56K, R96H
B17: V39: 6E7 variant: VH T30G, S61N, Q99G; VL Q55V, F94S (antibody, V domains shown)
VH: B1 VH with T30G, E32Y, S61N, Q99G
VL: B1 VL with R31S, Q55V, F94S
B18: V17: 6E7 variant: VH T30G, Q99S; VL L54R, F94S (antibody, V domains shown)
VH: B1 VH with T30G, E32Y, Q99S
VL: B1 VL with R31S, L54R, F94S
B19: V26: 6E7 variant: VH A35G, I50T, F102M, Y112A; VL N56R, F94Y (antibody, V domains shown)
VH: B1 VH with E32Y, A35G, I50T, F102M, Y112A
VL: B1 VL with R31S, N56R, F94Y

biological target: T1, human TREM2; details: 1st screen; values printed with asterisk; concentration 110 nM or 10 nM (footnote a not given)

Binding Signal (fold over 6E7 Parental antibody) 1st screen 110 nM or 10 nM | Molecule
0.33* fold over 6E7 Parental antibod | B1

same assay, conditions: 1st screen; values printed without asterisk; concentration 110 nM or 10 nM (footnote a not given)

Binding Signal (fold over 6E7 Parental antibody) 1st screen 110 nM or 10 nM | Molecule
5.41 fold over 6E7 Parental antibod | B2
4.71 fold over 6E7 Parental antibod | B3
3.84 fold over 6E7 Parental antibod | B4
4.23 fold over 6E7 Parental antibod | B5
4.01 fold over 6E7 Parental antibod | B6
1.31 fold over 6E7 Parental antibod | B7
4.34 fold over 6E7 Parental antibod | B8
4.80 fold over 6E7 Parental antibod | B9
5.50 fold over 6E7 Parental antibod | B10
3.46 fold over 6E7 Parental antibod | B11
4.92 fold over 6E7 Parental antibod | B12
3.38 fold over 6E7 Parental antibod | B13
5.23 fold over 6E7 Parental antibod | B14
3.08 fold over 6E7 Parental antibod | B15
2.64 fold over 6E7 Parental antibod | B16
6.15 fold over 6E7 Parental antibod | B17
5.37 fold over 6E7 Parental antibod | B18
3.57 fold over 6E7 Parental antibod | B19

same assay, conditions: 2nd screen, 2 nM

Binding Signal (fold over 6E7 Parental antibody) 2nd screen 2 nM | Molecule
5.41 fold over 6E7 Parental antibod | B2
2.57 fold over 6E7 Parental antibod | B3
4.86 fold over 6E7 Parental antibod | B4
3.15 fold over 6E7 Parental antibod | B5
3.57 fold over 6E7 Parental antibod | B6
1.15 fold over 6E7 Parental antibod | B7
3.44 fold over 6E7 Parental antibod | B8
5.17 fold over 6E7 Parental antibod | B9
5.67 fold over 6E7 Parental antibod | B10
3.69 fold over 6E7 Parental antibod | B11
5.57 fold over 6E7 Parental antibod | B12
4.00 fold over 6E7 Parental antibod | B13
4.72 fold over 6E7 Parental antibod | B14
2.63 fold over 6E7 Parental antibod | B15
1.42 fold over 6E7 Parental antibod | B16
5.11 fold over 6E7 Parental antibod | B17
4.22 fold over 6E7 Parental antibod | B18
2.83 fold over 6E7 Parental antibod | B19

same assay, conditions: 2nd screen, 10 nM

Binding Signal (fold over 6E7 Parental antibody) 2nd screen 10 nM | Molecule
5.37 fold over 6E7 Parental antibod | B2
4.64 fold over 6E7 Parental antibod | B3
3.93 fold over 6E7 Parental antibod | B4
4.70 fold over 6E7 Parental antibod | B5
4.04 fold over 6E7 Parental antibod | B6
1.35 fold over 6E7 Parental antibod | B7
4.36 fold over 6E7 Parental antibod | B8
5.02 fold over 6E7 Parental antibod | B9
5.69 fold over 6E7 Parental antibod | B10
3.49 fold over 6E7 Parental antibod | B11
5.30 fold over 6E7 Parental antibod | B12
3.44 fold over 6E7 Parental antibod | B13
4.78 fold over 6E7 Parental antibod | B14
3.61 fold over 6E7 Parental antibod | B15
2.90 fold over 6E7 Parental antibod | B16
5.81 fold over 6E7 Parental antibod | B17
5.51 fold over 6E7 Parental antibod | B18
3.47 fold over 6E7 Parental antibod | B19

same assay, conditions: 2nd screen, 100 nM

Binding Signal (fold over 6E7 Parental antibody) 2nd screen 100 nM | Molecule
0.36 fold over 6E7 Parental antibod | B1
